Laboratory results reported in IntAct's records for PubMed 19494831.

B1: Polycomb protein Sfmbt (Drosophila melanogaster (Fruit fly)), Q9VK33 (parent)
chain: MNPSELRMMWMSSQYNSERITLEDAATLLGHPTVGLSVMEDLSAHQPTLDMNPMMSLMGGDFTGQAAATAAALGVQPGTLIATNSNNLYGFAHMGGLQQQLLQQSAAAAVFQNYAEAMDNDVENGMVGMAMEAVVDDDDQVYGQRDNNFDDNGSELEPKQEIINIDDFVMMNEDNNSYDGTDFMTSSDKDISQSSSSCMAQMPGSLGVPGVEHDLLVPLPDGLLHHKLLGTTLVPAMGTLNGNAFGNIMVSTENTSSKQMQRTYSTAKGANSTATTATCSASTSSALRSQRKTRKIEPVNRPGLVLKTPIAYRGNIDPSVIPIQKDGMAVCKRCGAIGVKHTFYTKSRRFCSMACARGELYSLVLNTKMEGDQATTSSPDPGAGSESADLPGDQQQSQSDIELDLHAAHIKNANYRFRITDQSKITQLNSFGEPMSMGGDAAANNVQMAADETIAALNGGAVGDATAPGSTEEGASTPNSYLSAAPTPKALRLFKDIYPQDDLPQIPKYERLPVPCPQMEKIISIRRRMYDPTHSYDWLPRLSKENFNAAPVTCFPHAPGCEVWDNLGVGMKVEVENTDCDSIEVIQPGQTPTSFWVATILEIKGYKALMSYEGFDTDSHDFWVNLCNAEVHSVGWCATRGKPLIPPRTIEHKYKDWKDFLVGRLSGARTLPSNFYNKINDSLQSRFRLGLNLECVDKDRISQVRLATVTKIVGKRLFLRYFDSDDGFWCHEDSPIIHPVGWATTVGHNLAAPQDYLERMLAGREAMIEVHEDDATIELFKMNFTFDEYYSDGKTNSFVEGMKLEAVDPLNLSSICPATVMAVLKFGYMMIRIDSYQPDASGSDWFCYHEKSPCIFPAGFCSVNNISVTPPNGYDSRTFTWEGYLRDTGAVAAGQHLFHRIIPDHGFEVGMSLECADLMDPRLVCVATVARVVGRLLKVHFDGWTDEYDQWLDCESADIYPVGWCVLVNHKLEGPPRVAHQQAPKPAPKPKIQRKRKPKKGAAGGKTPTDNNTQSVKSRTIALKTTPHLPKLSIKLELKPEHHNAAFYENNQPEEEGDEEDPDADGDGDGSTSHISEQSTTQSSSDLIAGSGSGSGSASLVTLATGSNKTNSSATNNKYIPRLADIDSSEPHLELVPDTWNVYDVSQFLRVNDCTAHCDTFSRNKIDGKRLLQLTKDDIMPLLGMKVGPALKISDLIAQLKCKVNPGRARSHKTNKSPFL

Variants of: B1
Conditions: with h33_human H3-3A
With D808A the “effect of a mutation on the interaction” value was “decreasing interaction”.

Variants of: B1
Conditions: with h4_human H4C16, P62805
In the case of D808A, the “effect of a mutation on the interaction” value is reported as “decreasing interaction”.

Variants of: B1
Conditions: with h4_human H4C16, P62805
Remark: another data set of the same source
In the case of D917A, the “effect of a mutation on the interaction” value is reported as “disrupting interaction”.

Variants of: B1
Conditions: with h33_human H3-3A
Remark: another data set of the same source
D917A was tested, and the “effect of a mutation on the interaction” value was “disrupting interaction”.

Variants of: B1
Conditions: with h4_human H4C16, P62805
Remark: another data set of the same source
In the case of E947A, the “effect of a mutation on the interaction” value is reported as “decreasing interaction”. Y948F was tested, and the “effect of a mutation on the interaction” value was “decreasing interaction”.

Variants of: B1
Conditions: with h4_human H4C16, P62805
Remark: another data set of the same source
For E947A, the “effect of a mutation on the interaction” value was “disrupting interaction”. For Y948F, the “effect of a mutation on the interaction” value was “disrupting interaction”.

Variants of: B1
Conditions: with h4_human H4C16, P62805
Remark: another data set of the same source
For D697A, the “effect of a mutation on the interaction” value was “decreasing interaction”.

Variants of: B1
Conditions: with h33_human H3-3A
Remark: another data set of the same source
In the case of D697A, the “effect of a mutation on the interaction” value is reported as “increasing interaction”.
